Results taken from patent US20250186597A1 (BRIGHT PEAK THERAPEUTICS, published 2025).
Where “and” joins values, the source holds several entries; their conditions need not be identical. Identical values can stand only once.

T1: IL-18R on HEK-Blue IL18R reporter cells (InvivoGen, #hkb-hmi118) (UniProt Q13478 19-541; O95256 20-599, limits assumed)
T1 sequence (looked up) 1: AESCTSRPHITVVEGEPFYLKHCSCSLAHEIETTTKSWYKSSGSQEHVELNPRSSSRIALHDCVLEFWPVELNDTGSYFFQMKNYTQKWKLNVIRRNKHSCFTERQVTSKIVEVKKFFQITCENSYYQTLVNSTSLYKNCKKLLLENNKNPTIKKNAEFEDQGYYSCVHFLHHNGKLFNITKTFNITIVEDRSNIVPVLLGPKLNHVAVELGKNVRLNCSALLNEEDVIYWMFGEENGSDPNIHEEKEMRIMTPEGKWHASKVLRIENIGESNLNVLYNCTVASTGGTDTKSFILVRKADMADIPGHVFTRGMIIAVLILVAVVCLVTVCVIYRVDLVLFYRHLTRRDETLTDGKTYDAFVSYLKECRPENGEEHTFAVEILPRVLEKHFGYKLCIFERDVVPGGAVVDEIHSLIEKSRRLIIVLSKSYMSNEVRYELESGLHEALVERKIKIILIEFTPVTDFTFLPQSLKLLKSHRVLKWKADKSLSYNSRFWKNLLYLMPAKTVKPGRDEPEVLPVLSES
T1 sequence (looked up) 2: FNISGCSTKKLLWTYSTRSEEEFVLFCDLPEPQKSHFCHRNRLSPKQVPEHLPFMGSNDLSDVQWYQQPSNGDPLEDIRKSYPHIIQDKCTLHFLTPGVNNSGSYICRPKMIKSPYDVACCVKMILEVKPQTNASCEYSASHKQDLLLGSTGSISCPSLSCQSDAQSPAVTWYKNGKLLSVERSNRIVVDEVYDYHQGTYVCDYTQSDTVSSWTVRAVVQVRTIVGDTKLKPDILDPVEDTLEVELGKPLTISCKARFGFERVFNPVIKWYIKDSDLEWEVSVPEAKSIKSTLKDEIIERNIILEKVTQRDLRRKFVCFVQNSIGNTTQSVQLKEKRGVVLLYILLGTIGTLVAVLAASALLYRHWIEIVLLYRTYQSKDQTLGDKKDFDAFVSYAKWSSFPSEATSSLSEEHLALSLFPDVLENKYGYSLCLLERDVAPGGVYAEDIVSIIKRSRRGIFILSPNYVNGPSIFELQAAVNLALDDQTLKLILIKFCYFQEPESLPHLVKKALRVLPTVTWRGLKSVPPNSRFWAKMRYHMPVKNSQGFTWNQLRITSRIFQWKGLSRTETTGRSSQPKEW


Target: T1, IL-18R on HEK-Blue IL18R reporter cells …
Assay: cell-based or functional assay

EC50, HEK-Blue IL18R reporter assay	Binder
272 pM	IL-18 polypeptide of SEQ ID NO: 34 (E06K, K53A, S55A) (ligand) YFGKLKSKLSVIRNLNDQVLFIDQGNRPLFEDMTDSDCRDNAPRTIFIISMYADAQPRGMAVTISVKCEKISTLSCENKIISFKEMNPPDNIKDTKSDIIFFQRSVPGHDNKMQFESSSYEGYFLACEKERDLFKLILKKEDELGDRSIMFTVQNED
3.73 pM	IL-18 polypeptide of SEQ ID NO: 56 (E6K, K53A, C38S, C76S, C127S) (ligand) YFGKLKSKLSVIRNLNDQVLFIDQGNRPLFEDMTDSDSRDNAPRTIFIISMYADSQPRGMAVTISVKCEKISTLSSENKIISFKEMNPPDNIKDTKSDIIFFQRSVPGHDNKMQFESSSYEGYFLASEKERDLFKLILKKEDELGDRSIMFTVQNED
0.7 pM	IL-18 polypeptide C150 (V11I, T34A, C38A, K53A, C76A, C127A) (ligand) YFGKLESKLSIIRNLNDQVLFIDQGNRPLFEDMADSDARDNAPRTIFIISMYADSQPRGMAVTISVKCEKISTLSAENKIISFKEMNPPDNIKDTKSDIIFFQRSVPGHDNKMQFESSSYEGYFLAAEKERDLFKLILKKEDELGDRSIMFTVQNED
0.17 pM	IL-18 polypeptide C144 (V11I, C38A, K53A, T63A, C76A, C127A) (ligand) YFGKLESKLSIIRNLNDQVLFIDQGNRPLFEDMTDSDARDNAPRTIFIISMYADSQPRGMAVAISVKCEKISTLSAENKIISFKEMNPPDNIKDTKSDIIFFQRSVPGHDNKMQFESSSYEGYFLAAEKERDLFKLILKKEDELGDRSIMFTVQNED
0.17 pM	IL-18 polypeptide of SEQ ID NO: 62 (E6K, C38A, K53A, C127A) (ligand) YFGKLKSKLSVIRNLNDQVLFIDQGNRPLFEDMTDSDARDNAPRTIFIISMYADSQPRGMAVTISVKCEKISTLSCENKIISFKEMNPPDNIKDTKSDIIFFQRSVPGHDNKMQFESSSYEGYFLAAEKERDLFKLILKKEDELGDRSIMFTVQNED
1 pM	IL-18 polypeptide C147 (V11I, C38A, K53A, D54A, C76A, C127A) (ligand) YFGKLESKLSIIRNLNDQVLFIDQGNRPLFEDMTDSDARDNAPRTIFIISMYAASQPRGMAVTISVKCEKISTLSAENKIISFKEMNPPDNIKDTKSDIIFFQRSVPGHDNKMQFESSSYEGYFLAAEKERDLFKLILKKEDELGDRSIMFTVQNED
0.86 pM and 0.53 pM	IL-18 polypeptide of SEQ ID NO: 57 (E6K, C38S, K53A) (ligand) YFGKLKSKLSVIRNLNDQVLFIDQGNRPLFEDMTDSDSRDNAPRTIFIISMYADSQPRGMAVTISVKCEKISTLSCENKIISFKEMNPPDNIKDTKSDIIFFQRSVPGHDNKMQFESSSYEGYFLACEKERDLFKLILKKEDELGDRSIMFTVQNED
6.6 pM	IL-18 polypeptide C149 (V11I, E31A, C38A, K53A, C76A, C127A) (ligand) YFGKLESKLSIIRNLNDQVLFIDQGNRPLFADMTDSDARDNAPRTIFIISMYADSQPRGMAVTISVKCEKISTLSAENKIISFKEMNPPDNIKDTKSDIIFFQRSVPGHDNKMQFESSSYEGYFLAAEKERDLFKLILKKEDELGDRSIMFTVQNED
3.63 pM	IL-18 polypeptide C145 (V11I, C38A, K53A, S55A, C76A, C127A) (ligand) YFGKLESKLSIIRNLNDQVLFIDQGNRPLFEDMTDSDARDNAPRTIFIISMYADAQPRGMAVTISVKCEKISTLSAENKIISFKEMNPPDNIKDTKSDIIFFQRSVPGHDNKMQFESSSYEGYFLAAEKERDLFKLILKKEDELGDRSIMFTVQNED
14.1 pM	IL-18 polypeptide C153 (V11I, D37A, C38A, K53A, C76A, C127A) (ligand) YFGKLESKLSIIRNLNDQVLFIDQGNRPLFEDMTDSAARDNAPRTIFIISMYADSQPRGMAVTISVKCEKISTLSAENKIISFKEMNPPDNIKDTKSDIIFFQRSVPGHDNKMQFESSSYEGYFLAAEKERDLFKLILKKEDELGDRSIMFTVQNED
0.268 pM	IL-18 polypeptide of SEQ ID NO: 59 (E6K, C38A, K53A) (ligand) YFGKLKSKLSVIRNLNDQVLFIDQGNRPLFEDMTDSDARDNAPRTIFIISMYADSQPRGMAVTISVKCEKISTLSCENKIISFKEMNPPDNIKDTKSDIIFFQRSVPGHDNKMQFESSSYEGYFLACEKERDLFKLILKKEDELGDRSIMFTVQNED

More lines, now with the values behind:

Binder	EC50, HEK-Blue IL18R reporter assay
IL-18 polypeptide C151 (V11I, D35A, C38A, K53A, C76A, C127A) (ligand) YFGKLESKLSIIRNLNDQVLFIDQGNRPLFEDMTASDARDNAPRTIFIISMYADSQPRGMAVTISVKCEKISTLSAENKIISFKEMNPPDNIKDTKSDIIFFQRSVPGHDNKMQFESSSYEGYFLAAEKERDLFKLILKKEDELGDRSIMFTVQNED	13.1 pM
IL-18 polypeptide of SEQ ID NO: 42 (E06K, K53A, S55A, T63A) (ligand) YFGKLKSKLSVIRNLNDQVLFIDQGNRPLFEDMTDSDCRDNAPRTIFIISMYADAQPRGMAVAISVKCEKISTLSCENKIISFKEMNPPDNIKDTKSDIIFFQRSVPGHDNKMQFESSSYEGYFLACEKERDLFKLILKKEDELGDRSIMFTVQNED	0.79 pM
IL-18 polypeptide of SEQ ID NO: 54 (E06K, K53A, C38S, C68S, C76S, C127S, K70C) (ligand) YFGKLKSKLSVIRNLNDQVLFIDQGNRPLFEDMTDSDSRDNAPRTIFIISMYADSQPRGMAVTISVKSECISTLSSENKIISFKEMNPPDNIKDTKSDIIFFQRSVPGHDNKMQFESSSYEGYFLASEKERDLFKLILKKEDELGDRSIMFTVQNED	9.12 pM
IL-18 polypeptide of SEQ ID NO: 60 (E6K, C38Q, K53A) (ligand) YFGKLKSKLSVIRNLNDQVLFIDQGNRPLFEDMTDSDQRDNAPRTIFIISMYADSQPRGMAVTISVKCEKISTLSCENKIISFKEMNPPDNIKDTKSDIIFFQRSVPGHDNKMQFESSSYEGYFLACEKERDLFKLILKKEDELGDRSIMFTVQNED	0.203 pM
IL-18 polypeptide C146 (SEQ ID NO: 68; V11I, C38A, M51G, K53A, C76A, C127A) (ligand) YFGKLESKLSIIRNLNDQVLFIDQGNRPLFEDMTDSDARDNAPRTIFIISGYADSQPRGMAVTISVKCEKISTLSAENKIISFKEMNPPDNIKDTKSDIIFFQRSVPGHDNKMQFESSSYEGYFLAAEKERDLFKLILKKEDELGDRSIMFTVQNED	0.8 pM
IL-18 polypeptide C152 (V11I, S36A, C38A, K53A, C76A, C127A) (ligand) YFGKLESKLSIIRNLNDQVLFIDQGNRPLFEDMTDADARDNAPRTIFIISMYADSQPRGMAVTISVKCEKISTLSAENKIISFKEMNPPDNIKDTKSDIIFFQRSVPGHDNKMQFESSSYEGYFLAAEKERDLFKLILKKEDELGDRSIMFTVQNED	0.25 pM
IL-18 polypeptide of SEQ ID NO: 50 (E06K, K53A, T63A) (ligand) YFGKLKSKLSVIRNLNDQVLFIDQGNRPLFEDMTDSDCRDNAPRTIFIISMYADSQPRGMAVAISVKCEKISTLSCENKIISFKEMNPPDNIKDTKSDIIFFQRSVPGHDNKMQFESSSYEGYFLACEKERDLFKLILKKEDELGDRSIMFTVQNED	1.77 pM
IL-18 polypeptide C143 (V11I, C38A, K53A, C76A, C127A) (ligand) YFGKLESKLSIIRNLNDQVLFIDQGNRPLFEDMTDSDARDNAPRTIFIISMYADSQPRGMAVTISVKCEKISTLSAENKIISFKEMNPPDNIKDTKSDIIFFQRSVPGHDNKMQFESSSYEGYFLAAEKERDLFKLILKKEDELGDRSIMFTVQNED	0.98 pM
IL-18 polypeptide C148 (F2A, V11I, C38A, K53A, C76A, C127A) (ligand) YAGKLESKLSIIRNLNDQVLFIDQGNRPLFEDMTDSDARDNAPRTIFIISMYADSQPRGMAVTISVKCEKISTLSAENKIISFKEMNPPDNIKDTKSDIIFFQRSVPGHDNKMQFESSSYEGYFLAAEKERDLFKLILKKEDELGDRSIMFTVQNED	7.28 pM
